# Measurements reported in patent US20250340608A1 (PROTAGONIST THERAPEUTICS, published 2025).
# Where two headings read alike, the source gives them in different places. Bridge positions count the residues as written; N and C are the ends. Primed or numbered codes have the meaning given here. Ends that are not written are not given here. * marks the point of attachment. PEG8(3) = PEG8 side chain conjugate on Lys; Isovaleryl = CC(C)CC(=O)*
# T1: human ferroportin (SLC40A1) fused in frame with GFP, stably expressed in HEK293 cells (human, UniProt Q9NP59 1-571)
# T1 sequence (looked up): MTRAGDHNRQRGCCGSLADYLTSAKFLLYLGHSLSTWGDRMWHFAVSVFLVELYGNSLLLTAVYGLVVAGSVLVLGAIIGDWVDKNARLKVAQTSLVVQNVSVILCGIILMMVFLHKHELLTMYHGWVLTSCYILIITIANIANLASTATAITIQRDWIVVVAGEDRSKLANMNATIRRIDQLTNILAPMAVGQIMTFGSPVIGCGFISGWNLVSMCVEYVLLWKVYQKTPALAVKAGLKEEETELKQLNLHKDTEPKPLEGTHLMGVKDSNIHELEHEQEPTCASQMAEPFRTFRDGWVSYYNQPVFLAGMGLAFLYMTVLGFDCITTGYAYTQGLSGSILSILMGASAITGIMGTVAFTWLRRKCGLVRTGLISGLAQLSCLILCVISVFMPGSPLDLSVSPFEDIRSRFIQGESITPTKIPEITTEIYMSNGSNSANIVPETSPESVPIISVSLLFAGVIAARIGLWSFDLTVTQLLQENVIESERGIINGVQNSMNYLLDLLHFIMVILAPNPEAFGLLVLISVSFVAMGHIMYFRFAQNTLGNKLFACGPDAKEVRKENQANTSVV
# T2: human ferroportin (SLC40A1) fused in frame with GFP, stably expressed on HEK293 cells (human, UniProt Q9NP59 1-571)
# T2 sequence (looked up): T1 sequence (looked up)
# B1: Compound 310 (peptide)
# peptide: H-DTHFPCIEK-NH2
# B2: Compound 51 (DTHFPCIAF-NH2) (peptide)
# peptide: H-DTHFPCIAF-NH2
# B3: Compound 176 (peptide)
# peptide: Isovaleryl-DTHFPICIFGPRSK(PEG8(3))GWVC-NH2
# modifications: not fully specified (bridges); cysteine pairing not given here
# B4: Compound 52 (DAHFPCIIF-NH2) (peptide)
# peptide: H-DAHFPCIIF-NH2
# B5: Compound 284 (ATHFPCIIF-NH2) (peptide)
# peptide: H-ATHFPCIIF-NH2
# B6: Compound 153 (peptide)
# peptide: Isovaleryl-DTHFPCIKFGPRSKGWVCK(PEG8(3))-NH2
# modifications: not fully specified (bridges); cysteine pairing not given here
# B7: Compound 10 (peptide)
# peptide: Isovaleryl-DTHFPCIQFGPRSKGWVCK-NH2
# modifications: not fully specified (bridges); cysteine pairing not given here
# B8: Compound 345 (peptide)
# peptide: Isovaleryl-DTHFPCIKFK-NH2
# modifications: also: homodimer via disulfide between Cys6 of each monomer
# B9: Compound 349 (peptide)
# peptide: Isovaleryl-DTHFPCIKF-NH2
# modifications: also: homodimer with IDA-(β-Ala)-Palm linking moiety, attachment site not given here
# B10: Compound 280 (DTHFACIIF-NH2) (peptide)
# peptide: H-DTHFACIIF-NH2
# B11: Compound 9 (peptide)
# peptide: Isovaleryl-DTHFPCIKFGPRSKGWVCK-NH2
# modifications: not fully specified (bridges); cysteine pairing not given here
# B12: Compound 105 (peptide)
# peptide: Isovaleryl-DTHFPCIIFEPRSKGWVCK-NH2
# modifications: not fully specified (bridges); cysteine pairing not given here
# B13: Compound 348 (peptide)
# peptide: H-DTHFPCIKF-NH2
# modifications: also: homodimer with IDA-(β-Ala) linking moiety, attachment site not given here
# B14: Compound 3 (peptide)
# peptide: Isovaleryl-DTHFPCIIFGPRSRGWVCK-NH2
# modifications: disulfide 6-18 (inferred)
# B15: Compound 305 (peptide)
# peptide: H-DTHFPCIIR-NH2
# B16: Compound 279 (DTHFPCAIF-NH2) (peptide)
# peptide: H-DTHFPCAIF-NH2
# B17: Compound 352 (peptide)
# peptide: Isovaleryl-DTHFPCIIFGPRSRGWVCK-NH2
# modifications: disulfide 6-18 (inferred); not fully specified (residue 19); also: dimer through DIG linker on εN of Lys19 of each monomer
# B18: Compound 346 (peptide)
# peptide: Isovaleryl-DTHFPCIKFK-NH2
# modifications: also: homodimer linked by DIG linker through Lys10 of each monomer
# B19: Compound 2 (peptide)
# peptide: Isovaleryl-DTHFPICIFGPRSKGWVC-NH2
# modifications: disulfide 7-18 (inferred)
# B20: RI-Mini Hepcidin (Hy-DPhe-DIle-DCys-DIle-DPro-DPhe-DHis-DThr-DAsp-NH2) (peptide)
# peptide: FICIPFHTD
# modifications: all residues are D-amino acids (retro inverse: reversed sequence in all D amino acids); C-terminal amide (-NH2)
# B21: Compound 351 (peptide)
# peptide: DTHFPCIKF-NH2
# modifications: not fully specified; printed as [PEG25]-(DTHFPCIKF-NH2)2
# B22: Compound 150 (peptide)
# peptide: DTHFPCIKFKPRSKGWVCK
# modifications: not fully specified; N-terminal isovaleric acid; K10(PEG8); C-terminal NH2
# B23: Mini-Hepcidin 1-9 (Hy-DTHFPICIF-NH2) (peptide)
# peptide: H-DTHFPICIF-NH2
# B24: Compound 309 (peptide)
# peptide: H-DTHFPCILK-NH2
# B25: Compound 278 (DTHFPCIIA-NH2) (peptide)
# peptide: H-DTHFPCIIA-NH2
# B26: Compound 326 (peptide)
# peptide: Isovaleryl-DTHFPCIKF-NH2
# modifications: also: homodimer via disulfide between Cys6 of each monomer
# B27: Compound 184 (peptide)
# peptide: Isovaleryl-DTHFPCIKFEPRSKGCK-NH2
# modifications: not fully specified (bridges); cysteine pairing not given here
# B28: Compound 353 (peptide)
# peptide: Isovaleryl-DTHFPICIFGPRSKGWVC-NH2
# modifications: disulfide 7-18 (inferred); not fully specified (residue 14); also: dimer through DIG linker on εN of Lys14 of each monomer
# B29: Compound 181 (peptide)
# peptide: Isovaleryl-DTHFPCIKFEPRSKGWVCK-NH2
# modifications: not fully specified (bridges); cysteine pairing not given here
# B30: Compound 283 (DTAFPCIIF-NH2) (peptide)
# peptide: H-DTAFPCIIF-NH2
# B31: Compound 115 (peptide)
# peptide: Isovaleryl-DTHFPCIIFGPRSKGCK-NH2
# modifications: not fully specified (bridges); cysteine pairing not given here
# B32: Compound 68 (peptide)
# peptide: H-DTHFPICAFGPRSKGWVCM-NH2
# modifications: disulfide 7-18 (inferred)
# Columns and labels:
# Experiment in all cases: cell-based or functional assay
# [1] = molecular target: T1, human ferroportin (SLC40A1) fused in …
# [2] = molecular target: T1, human ferroportin (SLC40A1) fused in …; remark: listed apart in the source
# [3] = molecular target: T2, human ferroportin (SLC40A1) fused in …
# [4] = molecular target: T1, human ferroportin (SLC40A1) fused in …; remark: listed apart in the source
# [5] = molecular target: T1, human ferroportin (SLC40A1) fused in …; remark: listed apart in the source
# [6] = molecular target: T1, human ferroportin (SLC40A1) fused in …; remark: listed apart in the source
# [7] = molecular target: T1, human ferroportin (SLC40A1) fused in …; remark: listed apart in the source
# [8] = molecular target: T2, human ferroportin (SLC40A1) fused in …; remark: listed apart in the source
# [9] = molecular target: T2, human ferroportin (SLC40A1) fused in …; remark: listed apart in the source
# [10] = molecular target: T1, human ferroportin (SLC40A1) fused in …; remark: listed apart in the source
binder,measurement,setting,value
B1,% Activity At 1 uM,[1],0%
same,EC50 (nM) (n = 3),[1],> 1000 nM
same,Potency: % (activity) at 1 µM,[2],0%
B2,EC50 (nM) (n > 3),[3],382 nM
B3,In Vitro Activity EC50,[4],6 nM
B4,EC50 (nM) (n > 3),[3],388 nM
B5,EC50 (nM) (n > 3),[3],> 1000 nM
B6,In Vitro Activity EC50,[4],18 nM
B7,In Vitro Activity EC50,[4],35 nM
B8,EC50 (nM) (n > 3),[5],8 nM
same,Log dilutions EC50 (nM) (n > 3),[6],8 nM
B9,Log dilutions EC50 (nM) (n > 3),[6],5 nM
B10,EC50 (nM) (n > 3),[3],> 1000 nM
B11,In Vitro Activity EC50,[4],32 nM
B12,In Vitro Activity EC50,[4],10 nM
B13,Log dilutions EC50 (nM) (n > 3),[6],18 nM
B14,In Vitro Activity EC50,[4],15 nM
same,Log dilutions EC50 (nM) (n > 3),[7],15 nM
B15,EC50 (nM) (n = 3),[1],> 1000 nM
same,Potency: % (activity) at 1 µM,[2],62%
B16,EC50 (nM) (n > 3),[3],> 1000 nM
B17,Log dilutions EC50 (nM) (n > 3),[7],5 nM
B18,Log dilutions EC50 (nM) (n > 3),[6],15 nM
B19,In Vitro Activity EC50,[4],5 nM
same,Log dilutions EC50 (nM) (n > 3),[7],4.1 nM
B20,"EC50 (nM), ferroportin degradation (loss of ferroportin-GFP fluorescence)",[8],> 10000 nM
B21,Log dilutions EC50 (nM) (n > 3),[6],> 1000 nM
B22,In Vitro Activity EC50,[4],7 nM
B23,EC50 (nM) (n > 3),[9],712 nM
same,"EC50 (nM), ferroportin degradation (loss of ferroportin-GFP fluorescence)",[8],712 nM
B24,EC50 (nM) (n = 3),[1],> 300 nM
same,Potency: % (activity) at 1 µM,[2],55%
B25,EC50 (nM) (n > 3),[3],> 1000 nM
B26,EC50 (nM) (n > 3),[5],3 nM
same,% Activity At 1 uM,[1],100%
same,EC50 (nM) (n = 3),[1],3 nM
same,Log dilutions EC50 (nM) (n > 3),[6],6 nM
B27,In Vitro Activity EC50,[4],16 nM
B28,Log dilutions EC50 (nM) (n > 3),[7],2.2 nM
B29,In Vitro Activity EC50,[4],15 nM
B30,EC50 (nM) (n > 3),[3],739 nM
B31,In Vitro Activity EC50,[4],21 nM
B32,EC50 (nM) (n > 3),[10],> 10000 nM
